In paper PMC11382572, “Structural and kinetic insights into the stereospecific oxidation of R-2,3-dihydroxypropanesulfonate by DHPS-3-dehydrogenase from Cupriavidus pinatubonensis” (Chemical Science, 2024):

Experiments:
[1] = test system: O=S(=O)(O)C[C@H](O)CO; assay: purified protein; type: biochemical, Cupriavidus pinatubonensis; settings: Zn2+
[2] = test system: O=S(=O)(O)C[C@H](O)CO; assay: Michaelis-Menten kinetics (apparent KM); type: biochemical, Cupriavidus pinatubonensis; settings: Zn2+, NAD+

## DHPS-3-dehydrogenase (CpHpsN) (Cupriavidus pinatubonensis JMP134; H319A)
[1]
  Km: 1200 ± 300 µM
[1]; NADH active site, sulfonate and secondary hydroxyl groups participate in octahedral zinc coordination, occupancy […]
  kcat/Km: 3.1 M⁻¹ s⁻¹

## DHPS-3-dehydrogenase (CpHpsN) (Cupriavidus pinatubonensis JMP134; E318A)
[2]
  Km: 2800 ± 300 µM
  kcat/Km: 1.8 M⁻¹ s⁻¹
